Test results taken from paper PMC2841647 (PLoS ONE, 2010).

How the values were obtained:
mice [1] = test: Forced swim test (FST); format: in vivo, mouse; details: acute treatment
Protocol: (§1) Mice were treated as described above before being subjected to behavioral studies. Predictive estimation for anxiolytic properties of tat-cyclotraxin-B was assessed using open field and elevated plus-maze (EPM). Antidepressant-like action of tat-cyclotraxin-B was assessed with the forced-swim test (FST). Effects of acute treatment with tat-cyclotraxin-B on spontaneous locomotion, exploration and reactivity to a novel open field was assessed in plexiglas activity chambers (Med Associates; 45×45×31 cm). Mice were placed into the center of the open field, and activity was recorded for 30 min. Testing took place under bright ambient light conditions to increase the anxiety component of the center areas of the field (defined as the central 15×15 cm portion). Mice subjected to EPM received a double 90-interval i.v. injection of tat-cyclotraxin-B or saline buffer before being placed on the platform of the EPM and assessed for 5 min (26×5×36 cm). The diazepam control group consisted of saline buffer double-treated mice that further received a 30-min i.p. injection of diazepam (1 mg/kg). Mice were assessed for number of entries and amount of time spent in open versus closed arms. The FST procedure was applied to treated mice as described by Porsolt et al. (see ref. [60]). Mice were dropped individually into glass cylinder (height, 25 cm; diameter, 10 cm) containing 10 cm water height, maintained at 23–25°C. Animals were tested for a total of 6 min. The total time of swimming, the number of climbing attempts and the time of immobility was recorded during the last 4 min of the session, after 2 min of habituation. The paroxetine control group consisted of saline buffer double-treated mice that further received a 30-min i.p. injection of paroxetine (2 mg/kg). Behaviors were recorded on videotape and scored blind.

brain TrkB receptors = biological target: T1, brain TrkB receptors (Mus musculus, UniProt P15209); test: In vivo KIRA-ELISA analysis after intravenous injection; details: mice, i.v. 2×200 µg, 90-min interval
T1 construct: KIRA-ELISA analysis of brain TrkB receptors from mice; from tissue; host or cells: adult Swiss mouse brain, 300-µm coronal slices
Protocol: Adult Swiss mice (20–25 g) received a double 90-min-interval i.v. injection of saline buffer, tat-cyclotraxin-B (2×200 µg) or tat-empty (2×200 µg). Three hours after the first injection, mice were decapitated, brains quickly removed on ice, 300-µm coronal sections were prepared with a vibratome at three levels (bregma 0.90 mm: caudate putamen/nucleus accumbens level; bregma −1.60 mm: dorsal hippocampus level; bregma −2.70 mm: ventral hippocampus level, see SI Fig. 8A ) and placed in a holding chamber for one hour. Slices were then incubated in Ringer's solution supplemented with tat-cyclotraxin-B or tat-empty (1 µM) in holding chamber saturated with 95% O2, 5% CO2. […] Experiments were stopped by quick removing of the medium on ice. […] Protein concentrations were determined and equal amounts of proteins were loaded in each well for KIRA-ELISA assays (see above). The following antibodies combination was used for phosphorylation assays: TrkB capture with polyclonal anti-TrkB (1 µg/ml); tyrosine phosphorylation quantification with biotinylated anti-phosphotyrosine (4G10, 0.5 µg/ml) and a streptavidin-peroxydase system (1∶4000). The following combination was used for total TrkB quantification: TrkB capture with monoclonal anti-TrkB (1∶1000); total TrkB quantification with polyclonal anti-TrkB (1 µg/ml). Absorbance at 450 nm was read after addition of TMB and acidification. […]

mice [2] = test: Open field; format: in vivo, mouse
Protocol: as §1, with “The FST procedure was applied to treated mice as described by Porsolt et al. (see ref. [60]). Mice were dropped individually into glass cylinder (height, 25 cm; diameter, 10 cm) containing 10 cm water height, maintained at 23–25°C. Animals were tested for a total of 6 min.” left out, “The paroxetine control group consisted of saline buffer double-treated mice that further received a 30-min i.p. injection of paroxetine (2 mg/kg).” left out

phospho(Y816)-TrkB = biological target: T2, phospho(Y816)-TrkB (Mus musculus, UniProt P15209); test: Western blot with phospho(Y816)-TrkB antibody after intravenous injection; format: in vivo; details: mice, i.v. injection, vs tat-empty
T2 construct: KIRA-ELISA analysis of brain TrkB receptors from mice; from tissue; host or cells: adult Swiss mouse brain, 300-µm coronal slices
Protocol: Cell lysates were prepared in boiling SDS (2%, w/v) as described previously and subjected to SDS-PAGE. Detection and analysis of eIF4E, MAPK and Akt phosphorylation were done using anti-total and -phospho-eIF4E antibodies (1∶1000, Cell Signaling), anti-total and -phospho-MAPK antibodies (1∶1000, Cell Signaling) or anti-total and–phospho (Ser473) Akt antibodies (1∶1000, Santa Cruz; 1∶1000, Cell Signaling, respectively), respectively. For TrkB expression analysis, cortical neurons were cultured for eight days and TetOn-rhTrkB cells were incubated overnight with doxycycline. Cells were solubilized as for KIRA-ELISA assays and lysates were centrifuged at 14,000×g for 20 min at 4°C. Cleared supernatant was collected and proteins were subjected to SDS-PAGE. Detection of rhTrkB-ECFP and neuronal mouse TrkB were performed using anti-GFP polyclonal antibody (1∶5000, Clontech) and anti-rodent TrkB polyclonal antibody (1 µg/ml, Upstate), respectively. TrkB phosphorylation was quantified using anti-phospho-TrkB antibody (kindly provided by M.V. Chao). Proteins were visualized using appropriate HRP-conjugated secondary antibodies and films were quantified by densitometry.
Supplementary file pone.0009777.s009.tif: Figure S8 Protocol for in vivo KIRA-ELISA analysis after intravenous injection. […] Bands intensity have been quantified (down) Data are mean ± s.e.m. […]

T1 sequence (P15209 32-821): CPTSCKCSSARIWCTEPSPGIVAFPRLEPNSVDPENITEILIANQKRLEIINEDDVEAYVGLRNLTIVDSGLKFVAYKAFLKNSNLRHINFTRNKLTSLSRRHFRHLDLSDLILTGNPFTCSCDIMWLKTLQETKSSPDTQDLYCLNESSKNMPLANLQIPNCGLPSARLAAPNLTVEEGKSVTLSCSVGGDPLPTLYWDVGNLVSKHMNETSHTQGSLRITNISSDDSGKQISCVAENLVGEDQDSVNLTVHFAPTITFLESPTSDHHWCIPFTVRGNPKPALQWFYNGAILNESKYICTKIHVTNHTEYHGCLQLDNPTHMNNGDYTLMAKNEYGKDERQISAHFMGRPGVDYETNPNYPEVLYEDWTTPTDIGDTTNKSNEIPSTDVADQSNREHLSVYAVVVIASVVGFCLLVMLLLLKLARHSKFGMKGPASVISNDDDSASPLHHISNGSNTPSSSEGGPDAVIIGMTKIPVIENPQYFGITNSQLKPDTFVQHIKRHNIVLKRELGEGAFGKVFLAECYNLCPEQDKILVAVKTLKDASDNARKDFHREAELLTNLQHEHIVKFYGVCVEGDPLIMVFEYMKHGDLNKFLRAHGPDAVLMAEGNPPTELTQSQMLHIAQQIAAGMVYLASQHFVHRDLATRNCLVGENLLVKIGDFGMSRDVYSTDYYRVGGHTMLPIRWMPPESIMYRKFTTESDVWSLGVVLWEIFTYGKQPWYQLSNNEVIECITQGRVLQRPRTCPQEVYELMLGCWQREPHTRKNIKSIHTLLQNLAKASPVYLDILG
T2 sequence (P15209 32-821): as above

YGRKKRRQRRRCNPMGYTKEGC [tat-cyclotraxin-B]
FST swimming capabilities (mice [1]): not affected | FST climbing attempts (mice [1]; vs saline): not observed | FST time of immobility (mice [1]; vs saline): not observed | decrease in TrkB activity, injection (brain TrkB receptors): 50.9±3.1% | locomotor activity in open field (mice [2]; 30 min): did not show any alterations | time in the center compartment of open field (mice [2]; compared to saline controls): significantly more time | reduction in phospho(Y816)-TrkB band intensity (phospho(Y816)-TrkB): 37.7±4.7%
